From the supplement of paper PMC10567573
± gives the standard deviation.

Assay: protein stability index of a GFP-peptide fusion (GPS, HEK-293T) (PSI 1-6); higher = more stable
[1] = treatment: DMSO, c terminus: a fixed tail appended
[2] = treatment: MLN4924 1 uM, 8 h, c terminus: a fixed tail appended
[3] = treatment: DMSO, c terminus: native
[4] = treatment: MLN4924 1 uM, 8 h, c terminus: native
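Further: 24-mer peptide tiles fused after GFP, lentivirally expressed, FACS-sorted into six equal bins by GFP/DsRed ratio, decoded by Illumina sequencing, PSI is the read-weighted mean bin number.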

Sequence | protein stability index [1] | protein stability index [2] | protein stability index [3] | protein stability index [4]
SSKTITAEIPDGPPVVAHYDMSDT [C18orf25] | 5.14 ± 0.14 | 4.96 ± 0.23 |  | 
SQIQGLIGSVEEQLAQLRCEMEQQ [KRT16] | 4.387 ± 0.042 | 4.52 ± 0.28 |  | 
AAFCPQLDDSTVARELAITDSEHS [RETREG3] | 5.26 ± 0.16 | 5.14 ± 0.16 |  | 
PLLLRLPRICQRNLMSLLMAVRPS [FANCE] | 2.45 ± 0.34 | 2.56 ± 0.062 |  | 
MASQSQGIQQLLQAEKRAAEKVSE [ATP6V1G1] | 4.93 ± 0.36 | 5.385 ± 0.052 |  | 
MSKLLKRQNDILQVVSQGWKYFKG [CD207] | 2.28 ± 0.36 | 2.28 ± 0.082 |  | 
MPATPSLKVVHELPACTLCAGPLE [TRIM15] | 3.95 ± 0.28 | 4.03 ± 0.2 |  | 
DLRLRLDHLGWVARGTGSGEDSST [RTN2] | 3.53 ± 0.43 | 4.15 ± 0.37 |  | 
DGSVLLIPRTMADQQARRQERKPK [NFE2L1] | 3.5 ± 0.14 | 3.63 ± 0.31 |  | 
EGSSQEDEDLGLSEGSSQDSGED [SPANXN3] |  |  | 5.55 ± 0.24 | 5.56 ± 0.19
EPSSPASLTDSVNHHSPGGSSDAS [ESRRG] | 5.47 ± 0.15 | 5.51 ± 0.15 |  | 
PPPPPPHNSGPPPPPARGRGAPPP [WASL] | 5.14 ± 0.2 | 5.19 ± 0.16 |  | 
GIRLSENVIDRMKESSPSGSKSQR [CHCHD3] | 4.65 ± 0.19 | 4.72 ± 0.2 |  | 
SDTEAQCEVMQEIVDQVLEEDFDS [INTS3] | 5.56 ± 0.091 | 5.42 ± 0.34 |  | 
DSAKREVKQKISPYFKSNDVVCKN [FAN1] | 3.95 ± 0.35 | 4 ± 0.31 |  | 
TAQHQRRLAAIAQEKDQEMERLRE [FBF1] | 5.36 ± 0.17 | 5.42 ± 0.14 |  | 
MEALDLQPGLSFLNLGSGTGYLSS [PCMTD2] | 3.4 ± 0.36 | 3.45 ± 0.4 |  | 
PQGLFRGGKSGELEQEEERLSKEW [CHGA] | 5.19 ± 0.39 | 5.42 ± 0.19 |  | 
ELNKKMTNIRLPNVPSSSLPAQPN [CHMP4C] | 3.66 ± 0.4 | 3.63 ± 0.18 |  | 
EEEDDDDIHITARIESDLTLESLS [DRICH1] | 5.16 ± 0.12 | 5.16 ± 0.083 |  | 
YPFVLFYSKFHGLEMCVDARTFGN [KMT2E] | 2.87 ± 0.51 | 2.28 ± 0.33 |  | 
QRITKQLEKWMQKNVEENLYSSSL [GLT8D2] | 2.89 ± 0.28 | 3.03 ± 0.21 |  | 
RFFLGDLCSRQDLYPALKGVNTVF [NSDHL] | 2.19 ± 0.26 | 2.14 ± 0.54 |  | 

Sequence | protein stability index [1] | protein stability index [2] | protein stability index [3] | protein stability index [4]
QFSLMLCAFVGALGGAAFLGTAIF [SPNS1] | 2.81 ± 0.47 | 2.47 ± 0.41 |  | 
IKRAEDYGPVEVISHWHPNITINI [CLPTM1] | 3.11 ± 0.39 | 2.68 ± 0.14 |  | 
VPGHQTPSDLDQFSDSSLIEDSQA [LURAP1L] | 5.39 ± 0.15 | 5.41 ± 0.17 |  | 
IEADRRRAQLHVQGLLHEAGSTDD [SPNS1] | 4.87 ± 0.18 | 5.1 ± 0.33 |  | 
VVNTDHGSPEQLQIPVTDSGRHIL [SDE2] | 4.18 ± 0.15 | 4.29 ± 0.45 |  | 
ETLSGDRVRLDSELRNVQDVVEDY [KRT71] | 5.16 ± 0.19 | 5.36 ± 0.18 |  | 
QLSRDSTLGGKAFHITNDEPIPFW [NSDHL] | 2.89 ± 0.18 | 3.07 ± 0.55 |  | 
TWGKNKPGIGAVILKRFCWLLLQ [FAN1] |  |  | 3.45 ± 0.45 | 2.87 ± 0.53
VMKLEISPHRKRSDDSDEDEPCAI [DLC1] | 5.21 ± 0.52 | 4.93 ± 0.28 |  | 
PPITEVESQVFSEKLATDTSTFEA [ZNF232] | 5.33 ± 0.2 | 5.26 ± 0.083 |  | 
WGHCEVTMRYINGLDPEPLPLMDL [SPSB4] | 2.49 ± 0.26 | 2.5 ± 0.4 |  | 
LALKTPPRVLTLSERPLDFLDLER [MFF] | 2.96 ± 0.45 | 3.1 ± 0.21 |  | 
ESILMSLPLTARWEYMHSPSENSK [CPOX] | 3.45 ± 0.57 | 3.93 ± 0.33 |  | 
VLGGFLYAVGGSDGTSPLNTVERY [KLHL20] | 2.18 ± 0.32 | 2.47 ± 0.22 |  | 
SIGDIESCKLVRDKITGQSLGYGF [ELAVL3] | 2.72 ± 0.21 | 2.55 ± 0.17 |  | 
LPAGPLPAPLLVLCPSRAELDRWL [PLEKHN1] | 2.81 ± 0.16 | 2.6 ± 0.22 |  | 
PKNGRHAWIWHDCHRHYHSMEVFT [LOXL2] | 2.28 ± 0.24 | 2.4 ± 0.17 |  | 
GQWLGGRQIRTNWATRKPPAPKST [TIA1] | 3.57 ± 0.3 | 3.73 ± 0.34 |  | 
SAAHEVELQRQKEAEKLERQLALP [NOP53] | 4.99 ± 0.33 | 5.19 ± 0.23 |  | 
IDKSMTVVLTFITPMLNPLIYTLK [OR4A15] | 3.67 ± 0.16 | 2.8 ± 1 |  | 
KKLRLVFKSLDKKNDGRIDAQEIM [SLC25A25] | 2.57 ± 0.23 | 2.87 ± 0.31 |  | 
LPGACNIPANVSNCNWFCEGSFNG [KRT33B] | 2.33 ± 0.27 | 2.36 ± 0.22 |  | 
LQGKDAWLPLHYAAWQGHLPIVKL [RIPK4] | 2.21 ± 0.38 | 2.48 ± 0.42 |  | 

Sequence | protein stability index [1] | protein stability index [2] | protein stability index [3] | protein stability index [4]
GALTPTPAPTTTTATREEASTSLP [CLPTM1] | 5.28 ± 0.33 | 5.58 ± 0.22 |  | 
MLQRAIAYQHSGHLESKDINQEEL [C10orf62] | 3.96 ± 0.19 | 4.14 ± 0.24 |  | 
ERCLSCILAQQPDRLRDEELAELE [TRADD] | 4.41 ± 0.39 | 4.19 ± 0.51 |  | 
GMADVGTVCDPARSCAIVEDDGLQ [ADAMTS4] | 4.62 ± 1.1 | 5.33 ± 0.088 |  | 
KKKEGGALRAQRASSNVFSNFEQT [MYL5] | 4.42 ± 0.45 | 4.47 ± 0.15 |  | 
YRTVVRPTYKVMYKIVTAREWRCC [EMID1] | 2.71 ± 0.79 | 2.38 ± 0.44 |  | 
PSLAVNLADPYRSLKAPGARGPGP [JUNB] | 4.01 ± 0.29 | 3.83 ± 0.17 |  | 
LSPISHGNTIALFFRSLLPNYTME [TCF25] | 3.25 ± 0.47 | 2.33 ± 0.7 |  | 
ASGQGPMCNVKAPLGSPSPRPRRA [ADAMTS4] | 4.88 ± 0.29 | 5.13 ± 0.15 |  | 
PNLASDSDLSRRSSSTMSKSEYME [KCNA1] | 5.16 ± 0.27 | 5.22 ± 0.16 |  | 
PTTGYRRLLRFSSQIHNNGQSDFR [LOXL2] | 3.03 ± 0.37 | 3.22 ± 0.31 |  | 
TPTPQALYPDLSCPEGLEELLSAP [SPSB2] | 4.54 ± 0.24 | 4.55 ± 0.3 |  | 
VDADAGHNAWLSYSLLPQSTAPGL [PCDHGC5] | 2.87 ± 0.33 | 3 ± 0.26 |  | 
TVCGDLHGQLDDLIFIFYKNGLPS [PPEF2] | 2.87 ± 2.1 | 1.94 ± 0.41 |  | 
PWKEETFLVLQSLLERQVEMTPEK [FANCE] | 3 ± 0.22 | 3.08 ± 0.27 |  | 
VRGHHPKSGEEAVTVLEDLEKGLE [ZNF232] | 4.73 ± 0.21 | 4.72 ± 0.63 |  | 
YLQKIEEFAEMVEREEEDDALDSE [KCNG1] | 5 ± 0.51 | 5.15 ± 0.17 |  | 
PQDRYKAVWLIFFMLGLGTLLPWN [SLC29A1] | 3 ± 0.27 | 3.29 ± 0.37 |  | 
IDRNLREDGEKAAREVKLLLLGAG [GNAI1] | 3.67 ± 0.23 | 3.58 ± 0.096 |  | 
MINLRRLLLSHIHASSYISPEKEE [PRAME] | 2.41 ± 0.26 | 2.63 ± 0.57 |  | 
LRKSDMLEKEQVAHIRAERDILVE [STK38L] | 3.8 ± 0.35 | 4.17 ± 0.13 |  | 
RIHSGEKPYECNECGKAFSQSSYL [ZNF232] | 2.85 ± 0.068 | 3.1 ± 0.35 |  | 
PLPAAAVVHVSFPEVTSALLESLN [ZBTB22] | 2.41 ± 0.25 | 2.27 ± 0.26 |  | 

Sequence | protein stability index [1] | protein stability index [2] | protein stability index [3] | protein stability index [4]
NPPKASAAPDCTPSLEAGNPAPAA [MYCL] | 5.34 ± 0.19 | 5.34 ± 0.23 |  | 
RCACAASSDESPGSKCSPEDLATA [TTC32] | 3.83 ± 0.49 | 4.08 ± 0.23 |  | 
GFLTVTNLGVENMNHYKKTTLEIH [PTPN9] | 1.93 ± 0.59 | 1.92 ± 0.4 |  | 
QDGVSCLNIVERYDPKENKWTRVA [KLHL20] | 3.98 ± 0.28 | 4.08 ± 0.21 |  | 
TLLQDHENQRLFEMLGRKCLTLAT [WAS] | 2.37 ± 0.29 | 2.33 ± 0.28 |  | 
LSELLRYHTSQSGDEMTSLSEYVS [HSP90AB1] | 3.27 ± 0.23 | 3.6 ± 0.21 |  | 
PRQADHDDHECCERVVINISGLRF [KCNA1] | 3.1 ± 0.086 | 3.33 ± 0.27 |  | 
TSVEECSQKGCLALSLLELLGFNL [CLCN6] | 2.57 ± 0.68 | 2.37 ± 0.15 |  | 
ADIMISFVRGDHRDNSPFDGPGGN [MMP1] | 2.96 ± 0.31 | 3.07 ± 0.36 |  | 
LQEKQKNEKLISLQEQLQRFLKK [TAF7L] |  |  | 4.51 ± 0.29 | 4.6 ± 0.15
KENPECPVLKRSSESMENINSGYE [KMT2E] | 5.13 ± 0.2 | 5.01 ± 0.23 |  | 
SPRSTSVTTTSSASVTTTSNASGR [KRT13] | 5.31 ± 0.2 | 5.32 ± 0.12 |  | 
AEASHYNSDLNNLLFCCQCVDVVF [RHOBTB3] | 2.52 ± 0.49 | 2.54 ± 0.54 |  | 
LLLAYNSSARIPKCPWMEGGEMSP [INTS4] | 2.27 ± 0.32 | 2.17 ± 0.14 |  | 
HLAVDKNTTCVGRYPVCKFPSLQV [FEM1C] | 2.46 ± 0.25 | 2.44 ± 0.26 |  | 
LRYYYDKNIIHKTSGKRYVYRFVC [ETS2] | 2.79 ± 0.48 | 2.53 ± 0.62 |  | 
HTQAENAEFMRNFQKGQVTRDGFK [HMOX1] | 4.5 ± 0.17 | 4.54 ± 0.23 |  | 
SNTGSESNSATVEEPPTDPIPEDE [SMARCE1] | 5.48 ± 0.45 | 5.33 ± 0.51 |  | 
MADWARAQSPGAVEEILDRENKRM [BET1L] | 4.71 ± 0.35 | 4.75 ± 0.21 |  | 
AQEEPWEKKESLGAAQEALSIQLQ [ZNF232] | 4.91 ± 0.4 | 5 ± 0.15 |  | 
